Patent US20200338209A1, “ANTI-B7-H3 ANTIBODIES AND ANTIBODY DRUG CONJUGATES” (AbbVie Inc., priority 2016, published 2020)

Tests used:
[1] = target: T1, human B7-H3 (4Ig-B7-H3 variant) (Homo sapiens, UniProt Q5ZPR3); experiment: Biacore T200 SPR binding kinetics, mAb capture, soluble ECD of human B7-H3; conditions: 1:1 binding model
T1 construct: His tag (6xHis) (C)
T1 sequence (Q5ZPR3 with tags, fused parts or gaps): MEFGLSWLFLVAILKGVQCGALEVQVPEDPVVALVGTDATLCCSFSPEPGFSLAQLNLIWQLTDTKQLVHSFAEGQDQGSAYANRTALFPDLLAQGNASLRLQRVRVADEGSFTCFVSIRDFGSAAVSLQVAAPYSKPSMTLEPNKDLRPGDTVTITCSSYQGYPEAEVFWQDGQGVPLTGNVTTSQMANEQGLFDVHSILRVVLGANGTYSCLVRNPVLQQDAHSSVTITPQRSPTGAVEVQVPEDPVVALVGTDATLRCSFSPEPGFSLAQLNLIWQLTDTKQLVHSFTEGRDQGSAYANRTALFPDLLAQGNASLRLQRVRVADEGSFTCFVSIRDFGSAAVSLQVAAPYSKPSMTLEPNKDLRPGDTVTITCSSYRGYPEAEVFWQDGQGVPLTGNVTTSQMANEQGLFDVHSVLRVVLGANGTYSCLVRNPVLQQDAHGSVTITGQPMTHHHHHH
Procedure: (§1) The binding affinity of the purified anti-B7-H3 monoclonal antibodies was determined by surface […]. […] The binding kinetics were derived from SPR measurements using a Biacore T200 instrument and a mAb capture approach (as described in the materials and methods below).
(§2) Biacore T200 SPR instruments were used to measure the binding kinetics of human B7-H3 (4Ig-B7-H3 variant) (analyte) binding to various mAbs (ligands). The assay format was Fc-based capture via immobilized anti-mouse (Fc) (Pierce 31170) or immobilized anti-human (Fc) (Pierce 31125). A standard amine coupling protocol was employed to immobilize the capture reagents via primary amines to the carboxy-methyl (CM) dextran surface of CM5 sensorchips (Biacore); capture antibodies were coupled to a level of approximately 5000RU. For binding kinetic measurements the assay buffer was HBS-EP+ (Biacore): 10 mM Hepes, pH7.4, 150 mM NaCl, 3 mM EDTA, 0.05% polysorbate 20. During the assay, all measurements were referenced against the capture surface alone. Each assay cycle consisted of the following steps: 1) Capture of ligand to approximately 50RU; 2) Analyte injection over both reference and test surface, 240 μL at 80 μL/min, after which the dissociation was monitored for 900 seconds at 80 μL/min; 3) Regeneration of capture surface with low pH glycine. For kinetic determinations analyte injections were 3-point, 9-fold dilution series of 900 nM, 100 nM and 11.11 nM, buffer only injections were included for secondary referencing. Data were processed and fit to a 1:1 binding model using Biacore T200 Evaluation Software to determine the binding kinetic rate constants, ka (on-rate) and kd (off-rate), and the equilibrium dissociation constant (affinity, KD).

[2] = tested on: cyno B7-H3; experiment: Biacore T200 SPR binding kinetics, mAb capture, soluble ECD of cyno B7-H3; design: species or system cynomolgus monkey; conditions: 1:1 binding model
Chain of cyno B7-H3 (as listed by the source): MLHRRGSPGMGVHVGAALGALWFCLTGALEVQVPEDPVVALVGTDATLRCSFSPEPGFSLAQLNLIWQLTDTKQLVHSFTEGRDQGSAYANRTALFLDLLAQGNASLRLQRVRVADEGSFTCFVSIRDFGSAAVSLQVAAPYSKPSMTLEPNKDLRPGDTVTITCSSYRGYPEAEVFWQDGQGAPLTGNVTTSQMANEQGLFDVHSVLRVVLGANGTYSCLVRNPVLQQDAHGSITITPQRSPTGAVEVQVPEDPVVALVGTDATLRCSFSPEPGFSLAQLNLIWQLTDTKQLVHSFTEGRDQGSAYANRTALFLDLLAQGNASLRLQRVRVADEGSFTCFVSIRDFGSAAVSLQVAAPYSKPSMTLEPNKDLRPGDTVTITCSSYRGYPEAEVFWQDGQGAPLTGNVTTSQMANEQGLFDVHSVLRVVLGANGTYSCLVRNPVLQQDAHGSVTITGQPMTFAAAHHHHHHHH
Procedure: [The source words this procedure for another species and reports this species under the same test.] as §1, §2

B1: Ab18: the murine monoclonal Ab18 (antibody, V domains shown)
VH: QVQLQQSAAELARPGASVKMSCKASGYSFTSYTIHWVKQRPGQGLEWIGYINPNSRNTDYNQKFKDETTLTADRSSSTAYMQLISLTSEDSAVYYCARYSGSTPYWYFDVWGAGTTVTVSS
VL: QIVLTQSPAILSASPGEKVTMTCRASSSVSYMNWYQQKPGSSPKPWIYATSNLASGVPARFSVSVSGTSHSLTISRVEAEDAATYYCQQWSSNPLTFGAGTKLELK
ka (1/Ms) huB7-H3 [1]: 210000 M⁻¹ s⁻¹
kd (1/s) huB7-H3 [1]: 3.6e-05 s⁻¹
ka (1/Ms) cynoB7-H3 [2]: 240000 M⁻¹ s⁻¹
kd (1/s) cynoB7-H3 [2]: 2.9e-05 s⁻¹

B2: Ab12: murine anti-B7-H3 mAbs; mouse hybridoma derived (antibody, V domains shown)
VH: EVQLVESGGGLVKPGGSLKLSCAASGFTFSSYAMSWVRQTPEKRLEWVATISSGTNYTYYPDSVKGRFTISRDNAKNTLYLQMTSLRSEDTAMYYCARQGRYSWIAYWGQGTLVTVSA
VL: DIVLTQSPASLAVSLGQRATISCRASKSVSTSDYSYMHWNQQKPGQPPKLLIYLASNLESGVPARFSGSGSGTDFTLNIHPVEEEDAATYYCQHSRELLTFGAGTKLELK
ka (1/Ms) huB7-H3 [1]: 38000 M⁻¹ s⁻¹
kd (1/s) huB7-H3 [1]: 0.00025 s⁻¹
ka (1/Ms) cynoB7-H3 [2]: 55000 M⁻¹ s⁻¹
kd (1/s) cynoB7-H3 [2]: 1e-05 s⁻¹

B3: Ab4: murine anti-B7-H3 mAbs; mouse hybridoma derived (antibody, V domains shown)
VH: QVQLQQPGAELVKPGASVKLSCKASGYSFTSYWMHWVKQRPGQGLEWIGMIHPNSGSNNYNEKFKSKATLTVDKSSNTAYMQLSSLTSEDSAVYYCARRLGLHFDYWGQGTTLTVSS
VL: DIVMTQSQKFMSTPVGDRVSITCKASQNVGTAVAWYQQKPGQSPKLLIYSASNRYTGVPDRFTGSGSGTDFTLTISNMQSEDLADYFCQQYSSYPYTFGGGTKLEIK
ka (1/Ms) huB7-H3 [1]: 690000 M⁻¹ s⁻¹
kd (1/s) huB7-H3 [1]: 0.0011 s⁻¹
ka (1/Ms) cynoB7-H3 [2]: 540000 M⁻¹ s⁻¹
kd (1/s) cynoB7-H3 [2]: 0.00096 s⁻¹

B4: Ab13: mouse hybridoma derived anti-B7-H3 monoclonal antibodies (mAbs) (antibody, V domains shown)
VH: DVQLQESGPDLVKPSQSLSLTCTVTGYSITSGYSWHWIRQFPGNKLEWMGYIHSSGSTNYNPSLKSRISINRDTSKNQFFLQLNSVTTEDTATYYCAGYDDYFEYWGQGTTLTVSS
VL: DIVMTQSQKFMSTSVGDRVSVTCKASQNVGFNVAWYQQKPGQSPKALIYSASYRYSGVPDRFTGSGSGTDFTLTISNVQSEDLAEYFCQQYNSYPFTFGSGTKLEIK
ka (1/Ms) huB7-H3 [1]: 330000 M⁻¹ s⁻¹
kd (1/s) huB7-H3 [1]: 0.0058 s⁻¹
ka (1/Ms) cynoB7-H3 [2]: 440000 M⁻¹ s⁻¹
kd (1/s) cynoB7-H3 [2]: 0.0037 s⁻¹

B5: Ab5: murine anti-B7-H3 mAbs; mouse hybridoma derived (antibody, V domains shown)
VH: QVQLQQPGDELVKPGASVKLSCKTSGYTFTTDWMHWVKQRPGQGLEWIGMIHPNSGTTNYNEKFKSKAALTVDKSSSTACMQLSSLTSEDSAVYYCARSYWKWYFDVWGTGTTVTVSS
VL: QIVLTQSPAIMSASLGEEITLTCSASSSVSYMHWYQQKSGTSPKLLIYSTSNLASGVPSRFSGSGSGTFYSLTISSVEAEDSADYYCHQWTSYMYTFGGGTKLEIK
ka (1/Ms) huB7-H3 [1]: 1.3e+06 M⁻¹ s⁻¹
kd (1/s) huB7-H3 [1]: 0.012 s⁻¹
ka (1/Ms) cynoB7-H3 [2]: 1.4e+06 M⁻¹ s⁻¹
kd (1/s) cynoB7-H3 [2]: 0.28 s⁻¹

B6: Ab14: mouse hybridoma derived anti-B7-H3 monoclonal antibodies (mAbs) (antibody, V domains shown)
VH: EVKLVESGGGLVKPGGSLKLSCAASGFTFSSYGMSWVRQTPEKRLEWVATISGGGTNTYYPDSVEGRFTISRDNAKNFLYLQMSSLRSEDTALYYCARHYGSQTMDYWGQGTSVTVSS
VL: DIQMTQSPASLSASVGETVTITCRTSGNIHNYLTWYQQKQGKSPQLLVYNAKTLADGVPSRFSGSGSGTQFSLKINSLQPEDFGSYYCQHFWSIMWTFGGGTKLEIK
ka (1/Ms) huB7-H3 [1]: 110000 M⁻¹ s⁻¹
kd (1/s) huB7-H3 [1]: 0.0014 s⁻¹
ka (1/Ms) cynoB7-H3 [2]: 690000 M⁻¹ s⁻¹
kd (1/s) cynoB7-H3 [2]: 0.003 s⁻¹

B7: Ab8: murine anti-B7-H3 mAbs; mouse hybridoma derived (antibody, V domains shown)
VH: EVKLVESGGGLVKPGGSLKLSCAASGFTFSSYGMSWVRQTPEKRLEWVATISGGGNYTYCPDSVKGRFTISRDNAKNNLYLQMSSLRSEDTALYYCTRQRGYDYHYAMDFWGQGTSVTVSS
VL: DIQMTQSPASLSVSVGETVTITCRASENIYSNLAWHQQKQGKSPQLLVYAATNLADGVPSRFSGNGSDTQYSLKINSLQSEDFGSYFCQNFWGTSWTFGGGTKLEIK
ka (1/Ms) huB7-H3 [1]: 58000 M⁻¹ s⁻¹
kd (1/s) huB7-H3 [1]: 9.9e-05 s⁻¹
ka (1/Ms) cynoB7-H3 [2]: 160000 M⁻¹ s⁻¹
kd (1/s) cynoB7-H3 [2]: 0.00026 s⁻¹

B8: Ab16: mouse hybridoma derived anti-B7-H3 monoclonal antibodies (mAbs) (antibody, V domains shown)
VH: EVKLLESGGGLVQPGGSLKLSCAASGFDFSRYWMSWVRQAPGKGLEWIGEINPDSSTINYTPSLKDKFIISRDNAKNTLYLQMSKVRSEDTALYYCARPGFGNYIYAMDYWGQGTSVTVSS
VL: DIQMTQTTSSLSASLGDRVTINCRASQDISNFLNWYQQKPDGTVKLLIYYTSRLYLGVPSRFSGSGSGTDYSLTISNLEQEDIATYFCQQGNTLPPTFGGGTKLEIK
ka (1/Ms) huB7-H3 [1]: 140000 M⁻¹ s⁻¹
kd (1/s) huB7-H3 [1]: 0.0032 s⁻¹
ka (1/Ms) cynoB7-H3 [2]: 750000 M⁻¹ s⁻¹
kd (1/s) cynoB7-H3 [2]: 0.0056 s⁻¹

B9: Ab10: mouse hybridoma derived anti-B7-H3 monoclonal antibodies (mAbs) (antibody, V domains shown)
VH: DVQLQESGPGLVKPSQSLSLTCTVTGYSITSDYAWNWIRQFPGNRLEWMGHINYSGITNYNPSLKSRISITRDTSKNQFFLQLYSVTTEDTATYFCARRSLFYYYGSSLYAMDYWGQGTSVTVSS
VL: DVVMTQSPFSLPVSLGDQASISCRSSQSLVHSNGNTYLHWYLQKPGQSPKLLIYKVSNRFSGVPDRFSGSGSGTDFTLKISRVEAEDLGVYFCSQSTHVPWTFGGGTKLEIK
ka (1/Ms) huB7-H3 [1]: 41000 M⁻¹ s⁻¹
kd (1/s) huB7-H3 [1]: 0.00019 s⁻¹
ka (1/Ms) cynoB7-H3 [2]: 200000 M⁻¹ s⁻¹
kd (1/s) cynoB7-H3 [2]: 0.0042 s⁻¹

B10: Ab3: murine anti-B7-H3 mAbs; mouse hybridoma derived (antibody, V domains shown)
VH: QVQLQQPGAELVKPGASVKLSCKASGYTFSSYWMHWVKQRPGQGLEWIGLIHPDSGSTNYNEMFKNKATLTVDRSSSTAYVQLSSLTSEDSAVYFCAGGGRLYFDYWGQGTTLTVSS
VL: DVVMTQTPLSLPVSLGDQASISCRSSQSLVHSNGDTYLRWYLQKPGQSPKLLIYKVSNRFSGVPDRFSGSGSGTDFTLKITRVEAEDLGVYFCSQSTHVPYTFGGGTKLEIK
ka (1/Ms) huB7-H3 [1]: 520000 M⁻¹ s⁻¹
kd (1/s) huB7-H3 [1]: 0.01 s⁻¹
ka (1/Ms) cynoB7-H3 [2]: 380000 M⁻¹ s⁻¹
kd (1/s) cynoB7-H3 [2]: 0.01 s⁻¹
